The results in this text go back to paper PMC6482012.

The target in this assay is p62 (SQSTM1) (UniProt Q13501). Description: GST pulldown after in vitro AMPK reaction. Conditions: reference: WT GST-KHK-A without AMPK; sites S80.

As for “KHK-A (fructokinase A, ketohexokinase A) (from UniProt P50053-2) WT GST-KHK-A incubated with active AMPK”, the “binding against the reference” value is listed as “stronger”.
